We go through 21 molecules from US20030199077.

Where only a bound is given, the exact number is not on record here.

The labels stand for the following.
T1: trypsin inhibitor type IV-0 (Ovo-inhibitor), Sigma T-1886, P10184
T1 chain: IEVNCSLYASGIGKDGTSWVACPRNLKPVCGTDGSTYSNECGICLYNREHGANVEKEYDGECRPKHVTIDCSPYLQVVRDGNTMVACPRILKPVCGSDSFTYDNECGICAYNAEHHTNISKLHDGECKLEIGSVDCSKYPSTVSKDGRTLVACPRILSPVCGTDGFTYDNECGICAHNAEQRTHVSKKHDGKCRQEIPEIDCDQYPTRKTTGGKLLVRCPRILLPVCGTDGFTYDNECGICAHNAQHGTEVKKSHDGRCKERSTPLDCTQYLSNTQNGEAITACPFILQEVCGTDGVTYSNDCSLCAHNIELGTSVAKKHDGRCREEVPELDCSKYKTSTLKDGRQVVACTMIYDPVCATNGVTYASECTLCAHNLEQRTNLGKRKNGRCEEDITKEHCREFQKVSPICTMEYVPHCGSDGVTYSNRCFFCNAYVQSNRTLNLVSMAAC

T2: trypsin inhibitor type IV-0 (Ovo-inhibitor), Sigma T-1886 (UniProt P10184)
T2 sequence: T1 chain

B1: Savinase® (subtilisin 309 from B. lentus, BLSAVI) (protein)
chain: AQSVPWGISRVQAPAAHNRGLTGSGVKVAVLDTGISTHPDLNIRGGASFVPGEPSTQDGNGHGTHVAGTIAALNNSIGVLGVAPSAELYAVKVLGASGSGSVSSIAQGLEWAGNNGMHVANLSLGSPSPSATLEQAVNSATSRGVLVVAASGNSGAGSISYPARYANAMAVGATDQNNNRASFSQYGAGLDIVAPGVNVQSTYPGSTYASLNGTSMATPHVAGAAALVKQKNPSWSNVQIRNHLKNTATSLGSTNLYGSGLVNAEAATR

One series concerns the target T1, trypsin inhibitor type IV-0 ….
Regarding B1, the “Residual Activity (%)” value was less than 5%.

A further series deals with T2, trypsin inhibitor type IV-0 (Ovo-inhibitor), Sigma T-1886.
For the molecule “Savinase variant A98AT+Y167A+R170S+A194P”, the Residual Activity (%) amounted to 88%.
Regarding Savinase variant S99SD+S99A, the Residual Activity (%) is 27.3%.
“Savinase variant A98AI+A98G+S99H+G100S+S101A” displayed a Residual Activity (%) of 22%.
Savinase variant S99SD+S99A+P131T: the Residual Activity (%) was determined as 35.6%.
The same measure, in the same setting: as for Savinase variant S99SD+N76D+A194P+A230V, the figure is 18.4%.
As for Savinase variant S99SD, the Residual Activity (%) turned out to be 25%.
Molecule Savinase variant S99SD+S99A+A133E came in with a Residual Activity (%) of 39%.
For the molecule Savinase variant S99SN, the Residual Activity (%) was determined as 19%.
Take Savinase variant S99SD+S99A+S216SDP: the Residual Activity (%) is 35%.
Take Savinase variant S99SE: the Residual Activity (%) is 27%.
In turn, Savinase variant S99SD+S99A+D42DN displayed a Residual Activity (%) of 69.2%.
As for Savinase variant S99SD+S99A+P129PD, the Residual Activity (%) was found to be 50%.
With Savinase variant S99SD+S99A+S216SP, the Residual Activity (%) amounted to 29.2%.
Savinase variant S99SD+S99A+P129PR: the Residual Activity (%) was 21%.
For the molecule Savinase variant S99SD+S99A+L217LP, the Residual Activity (%) worked out at 97%.
Take Savinase variant S99SR+S99T: the Residual Activity (%) was 67.7%.
On to Savinase variant S99SQ+S99T, for which the Residual Activity (%) worked out at 25%.
Still for that read-out and setting: as for Savinase variant S99SD+M222S, the figure is 25%.
“Savinase variant S99SD+S99A+L217F+A228V+A230V”: the Residual Activity (%) was 12%.
With Savinase variant S99SD+S99A+T143K, the Residual Activity (%) was determined as 23%.
